Assay results taken from publication doi:10.1101/2021.01.28.428652.

What was measured:
[1] = target: MIK2^ECD-6xHIS, extracellular leucine-rich repeat domain of MALE DISCOVERER 1-… RECEPTOR-LIKE KINASE 2 (Arabidopsis thaliana) (UniProt Q8VZG8); test: ITC
[2] = target: MIK2^ECD-6xHIS, extracellular leucine-rich repeat domain of MALE DISCOVERER 1-… RECEPTOR-LIKE KINASE 2 (Arabidopsis thaliana) (UniProt Q8VZG8); test: SPR

UniProt Q8VZG8, sequence (Q8VZG8 44-707): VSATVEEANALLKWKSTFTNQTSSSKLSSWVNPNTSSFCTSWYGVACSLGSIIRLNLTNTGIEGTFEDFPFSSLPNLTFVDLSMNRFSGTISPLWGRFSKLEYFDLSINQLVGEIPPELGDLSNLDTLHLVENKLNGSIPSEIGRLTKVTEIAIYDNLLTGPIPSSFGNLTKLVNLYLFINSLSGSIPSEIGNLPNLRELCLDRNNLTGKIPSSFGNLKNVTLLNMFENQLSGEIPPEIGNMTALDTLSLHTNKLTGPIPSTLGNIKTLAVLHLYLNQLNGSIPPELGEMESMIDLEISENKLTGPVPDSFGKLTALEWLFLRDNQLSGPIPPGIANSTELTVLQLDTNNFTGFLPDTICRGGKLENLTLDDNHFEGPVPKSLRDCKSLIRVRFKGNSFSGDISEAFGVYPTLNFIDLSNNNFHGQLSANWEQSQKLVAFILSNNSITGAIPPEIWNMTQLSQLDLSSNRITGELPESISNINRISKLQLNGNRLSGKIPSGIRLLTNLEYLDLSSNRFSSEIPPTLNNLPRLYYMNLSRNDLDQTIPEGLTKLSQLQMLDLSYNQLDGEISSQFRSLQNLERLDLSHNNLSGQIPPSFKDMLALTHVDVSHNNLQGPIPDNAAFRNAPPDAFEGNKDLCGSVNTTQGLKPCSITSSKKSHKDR

## SCOOP12 peptide (SERINE-RICH ENDOGENOUS PEPTIDE 12)
[1]
  Kd: 3.18 µM
  stoichiometry N (ligand molecule per receptor molecule): 1
[2]
  Kd: 0.00178 mM

## SCOOP12^SS/AA peptide
[2]
  Kd: 3.48 mM
